In patent US20250381223A1 (UTC THERAPEUTICS SHANGHAI, published 2025):
Residue numbers refer to the chain shown, from its start.

T1: CD123-Fc recombinant protein (human, UniProt P26951 19-305)
T1 construct: construct not described; not shown: Fc part
T1 sequence (looked up): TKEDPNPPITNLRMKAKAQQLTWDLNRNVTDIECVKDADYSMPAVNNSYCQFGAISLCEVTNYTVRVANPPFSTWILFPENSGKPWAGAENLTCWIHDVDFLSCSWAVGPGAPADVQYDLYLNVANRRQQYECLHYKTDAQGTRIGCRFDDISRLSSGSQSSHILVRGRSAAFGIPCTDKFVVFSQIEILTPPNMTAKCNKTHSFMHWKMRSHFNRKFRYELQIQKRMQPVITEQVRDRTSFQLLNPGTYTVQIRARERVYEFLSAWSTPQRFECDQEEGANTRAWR

B1: huVH3huVL2 (antibody, human IgG1, kappa, V domains shown)
VH: QVQLQESGPGLVKPSETLSLTCTVSGFSLSDYGVHWVRQSPGKGLEWIGVIWAGGGTNYNSALKSRKTISKDNSKSQVSLKLSSVTAADTAVYYCARDKGYSYYYSMDYWGQGTTVTVSS
VL: DIQLTQSPSSLSASVGDRVTITCRASESVEYYVTSLMQWYQQKPGKAPKLLIFAASNVESGVPSRFSGSGSGTNFTLTISSVQPEDFATYFCQQSRKVPYTFGGGTKLEIKR
B2: huVH2huVL2 (antibody, human IgG1, kappa, V domains shown)
VH: B1 VH with L20I, S40P, I48L, K64M, N73T, S76N, L82M, V85L
VL: B1 VL
B3: huVH1huVL2 (antibody, human IgG1, kappa, V domains shown)
VH: B1 VH with Q3K, L20I, I48L, K64M, S79F, L82M, V85L
VL: B1 VL
B4: huVH1huVL1 (antibody, human IgG1, kappa, V domains shown)
VH: B1 VH with Q3K, L20I, I48L, K64M, S79F, L82M, V85L
VL: B1 VL with A13V, T22S, K46Q, P84E, T89M
notes: also called huVH1VL1; 9.3h11
B5: anti-CD123 scFv-C27 (scFv)
scFv: EIVLTQSPGTVSLSPGERATLSCRASQRVSATYLAWYQQKPGQAPRLLMYGGSRRATGIPDRFSGSGSGTDFTLTIRRLEPEDSAVYYCQQYGSSPLTFGGGTKLEIKGGGGSGGGGSGGGGSQVQLVQSGSELKKPGASVKVSCKASGYTFTSYGISWVRQAPGQGLEWMGWISAYNGNTNYAQKLQGRVTMTTDTSTSTAYMELRSLRSDDTAVYYCARDPYDDYGGNSRDEEDAFDIWGQGTTVTVSS
notes: On mRNA-electroporated T cells as CAR
B6: anti-CD123 scFv-C32 (scFv)
scFv: QSVVTQPPSASGTPGQRVTISCSGSSSNIEGNTVSWYQQFPGAAPKLLIYSNSYRASGVPDRFSGSKSGTSASLAISELQSEDEADYYCSAWDDSLNGPVFGGGTKVTVLGGGGSGGGGSGGGGSEVQLVESGGGLVQPGGSLRLSCAASGFTFTSYAMNWVRQAPGKGLEWVSDISSSSSYIYYADSVKGRFTISRDNAKNSLYLQMNSLRAEDTAVYYCARDLYSGYDYGYYYGMDVWGQGTTVTVSS
notes: as for B5
B7: anti-CD123 scFv-C19 (scFv)
scFv: DIRMTQSPSSLSASVGDRVTITCRASQDIRHDLGWYQQKPGKAPSLLMYATSTLQSGVPSRFSGSGSGTHFTLTISSLKPEDSATYYCLQDGDYPLTFGGGTKLEIKGGGGSGGGGSGGGGSQVQLVQSGGGVVQPGRSLRLSCAASGFTFSSYGMHWVRQAPGKGLEWVAVISYDGSNKYYADSVKGRFTISRDNSKNTLYLQMNSLRAEDTAVYYCAKDPSLIQYYYYGMDVWGQGTMVTVSS
notes: as for B5
B8: anti-CD123 scFv-C24 (scFv)
scFv: DIQMTQSPSSLSASVGDRVTITCRASQSISSYLNWYQQKPGKAPKLLIHAASSLQSGVPSKFSGSGSGTDFTLTISSLQPEDFATYYCLQYKTYPYTFGPGTKVEIKGGGGSGGGGSGGGGSQVQLVQSGAEVKKPGSSVKVSCKASGGTFSSYAISWVRQAPGQGLEWMGGIIPIFGTANYAQKFQGRVTITADESTSTAYMELSSLRSEDTAVYYCARDSPSGSTNYYYYYMDVWGKGTTVTVSS
notes: as for B5
B9: anti-CD123 scFv-C21 (scFv)
scFv: QSVLTQPPSASGTPGQRVTISCSGSSSNVGGNPVYWYRQVPTAAPKLLVYGHNQRPPRDPDRFSGSKSGTSASLAISGLRSEDEADYYCAAWDDSLSGWVFGGGTELTVLGGGGSGGGGSGGGGSEVQLVESGGGLVQPGRSLRLSCAASGFTFDDYAMHWVRQAPGKGLEWVSGISWNSGSIGYADSVKGRFTISRDNAKNSLYLQMNSLRAEDTALYYCAKGRYVDIVATINDAFDIWGQGTMVTVSS
notes: as for B5
B10: anti-CD123 scFv-C34 (scFv)
scFv: QSALTQPPSASGSPGQSVTISCTGTRSDVGAYNYVSWYQHHPGKAPKLMLYDVSKRPSGVSDRFSGSKSGNTASLTVSGLQSEDEANYYCSSYAGSGKYVFGSGTELTVLGGGGSGGGGSGGGGSEVHLVESGGGLVKPGGSLRLSCAASGFTFSDTWMSWVRQAPGKGLEWVGRIKSKTDGGTTNYAAPVKGRFTISRDDSKTTLFLQMNSLKTEDTAVYYCTGGDYPLFAYWGQGALVTVSS
notes: as for B5
B11: anti-CD123 scFv-C30 (scFv)
scFv: AIRLTQSPSSLSASVGDRVTITCQASQNINNYLNWYQQKSGKAPKLLIYDASNLEAGVPSRFSGSASGTDFTFTISSLQPEDIATYYCQQNDNLPLTFGQGTRLEIKGGGGSGGGGSGGGGSEVQLVESGGGVVRPGGSLRLSCAASGFTFGDYGMSWVRQAPGKGLEWVSGINWNGGSTGYADSVKGRFTISRDNAKNSLYLQMNSLRAEDTALYYCARDRAPDYGDYLQVGTTDYWGQGTLVTVSS
notes: as for B5
B12: anti-CD123 scFv-C29 (scFv)
scFv: QPVLTQPPSASGTPGQRVTISCSGSSSNIGSNYVYWYQQLPGTAPKLLIYRNNQRPSGVPDRFSGSKSGTSASLAISGLRSEDEADYYCAAWDDSLSGYVFGTGTKVTVLGGGGSGGGGSGGGGSEVHLVESGGGLVQPGRSLRLSCTASGFTFGDYAMSWVRQAPGKGLEWVGFIRSKAYGGTTEYAASVKGRFTISRDDSKSIAYLQMNSLKTEDTAVYYCTRDIGYYGSGSYSPFDYWGQGTLVTVSS
notes: as for B5
B13: anti-CD123 scFv-C26 (scFv)
scFv: QSVLTQPPSASGTPGQRVTISCSGSRSNIGSNTVSWYQQFPGTAPKLLIYLNNQRPSGVPDRFSGSKSGTSASLAISGLQSEDEAEYYCATWDDDLNGVFGGGTKLTVLGGGGSGGGGSGGGGSEVQLVESGGGLVQPGGSLRLSCAASGFTLSNFEMNWVRQAPGRGLEWVSYISATTSATSYADSVKGRFTISRDNAKNSLYLQMNSLRAEDTAVYYCARVRDGYNFGYYYYYMDVWGKGTTVTVSS
notes: as for B5
B14: anti-CD123 scFv-C33 (scFv)
scFv: DIRLTQSPSSLSASVGDTITITCRASQDISSWIAWYQQKPGTAPRLLIYAASSLQSGVPSRFSGSGSGTDFTLTINSLHPEDFATYYCQQGSTFPLAFGGGTKVEIKGGGGSGGGGSGGGGSQVQLVQSGAEVKKPGSSVKVSCKASGGTFSSYAISWVRQAPGQGLEWMGGIIPIFGTANYAQKFQGRVTITADESTSTAYMELSSLRSEDTAVYYCARGLDNWNDVGWFDPWGQGTLVTVSS
notes: as for B5
B15: anti-CD123 scFv-C23 (scFv)
scFv: DILMTQSPSSLSASVGDRVTITCQASQDISNYLNWYQQKPGKAPKLLIYDASNLETGVPSRFSGSGSGTGFSFTISSLQPEDFATYYCQQYGNLPLTFGGGTKLEIKGGGGSGGGGSGGGGSQVQLVQSGAEVKKPGASVKVSCKASGYTFTSYGISWVRQAPGQGLEWMGWISAYNGNTNYAQKLQGRVTMTTDTSTSTAYMELRSLRSDDTAVYYCARDRIAAAEVYYYYGMDVWGQGTTVTVSS
notes: as for B5

molecular target: T2, recombinant Human/Cynomolgus CD28 (N-6His) (Human/Cynomolgus, UniProt P10747 19-152); experiment: ELISA; plate coated with CD28 (N-6His) 2 µg/mL; HRP-anti-hFc
T2 construct: Bought protein; also called antigen CD28; not shown: 6His tag at the N-terminus (N-6His)
Procedure: The binding activity of the humanized antibody to the antigen CD28 was detected by the ELISA method. The experimental procedures were as follows: [0525] 1. 30 μL of recombinant Human/Cynomolgus CD28 (N-6His) (Suzhou Novoprotein Scientific Inc., C406) at a concentration of 2 μg/mL was added to each well of an ELISA plate, and the plate was incubated at 4° C. overnight. [0526] 2. The next day, the ELISA plate was washed 3 times with PBST (containing 0.05% Tween-20). [0527] 3. 250 μL of 5% skim milk powder (dissolved in PBS) was added to each well of the ELISA plate, and the plate was incubated at room temperature for 2 h. [0528] 4. The plate was washed 3 times with PBST, antibodies with different dilution ratios were added to the ELISA plate at 30 μL/well, and the plate was incubated at room temperature for 60 min. [0529] 5. The plate was washed 3 times with PBST, 30 μL of HRP-anti-hFc antibody was added to each well, and the plate was incubated at room temperature for 60 min. [0530] 6. The plate was washed 3 times with PBST, 30 μL of TMB was added to each well, and after color development at room temperature, 30 μL of 2 M H₂SO₄ was added to each well to stop the reaction. The plate was read at 450 nm.

B1 and B2 are within 1.5-fold of each other in EC50: 0.00914 µg/mL for the first, 0.0126 µg/mL for the second.

B3 and B4 are within 1.5-fold of each other in EC50: 0.0125 µg/mL for the first, 0.0151 µg/mL for the second.

molecular target: T3, CD28 (detection antigen of the BLI assay) (human, UniProt P10747 19-152, limits assumed); experiment: BLI (GATOR); antibody loaded at 30 nM, antigen 300-37.5 nM
T3 construct: also called the antigen
Description: The affinity kinetics of the humanized antibodies were detected using biolayer interferometry (BLI). The experimental procedures were as follows: [0533] 1. GATOR instrument was run, and the Kinetics experimental mode was selected. [0534] 2. The analysis program was run according to Table 5

B1 and B2 are within 1.5-fold of each other in Kd: 9.13 nM for the first, 6.59 nM for the second.

B3 and B4 are within 1.5-fold of each other in Kd: 6.54 nM for the first, 6.13 nM for the second.

B1 and B2 are within 1.5-fold of each other in koff: 0.000782 s⁻¹ for the first, 0.000584 s⁻¹ for the second.

B3 and B4 are within 1.5-fold of each other in koff: 0.000582 s⁻¹ for the first, 0.000531 s⁻¹ for the second.

B1 and B2 are within 1.5-fold of each other in kon: 85700 M⁻¹ s⁻¹ for the first, 88700 M⁻¹ s⁻¹ for the second.

B3 and B4 are within 1.5-fold of each other in kon: 89000 M⁻¹ s⁻¹ for the first, 86600 M⁻¹ s⁻¹ for the second.

molecular target: T1, CD123-Fc recombinant protein; experiment: flow cytometry of T cells electroporated with CAR mRNA, stained with CD123-Fc + PE-anti-hIgG-Fc; Mock 0.36
Procedure: The CD123 CAR mRNAs obtained in Example 35 above were each introduced into T cells by electroporation according to the following procedures: T cells were collected, washed with the Opti-MEM medium, and resuspended at 1×10e⁷/mL with the Opti-MEM medium; 10 μg of RNA and 100 μL of T cells were aliquoted, mixed well, and electroporated under the following parameters (BTX machine): 500 V, 0.7 ms; the cells were then transferred to a pre-warmed medium and cultured at 37° C. The binding of CD123 CART cells to the CD123-Fc recombinant protein was detected by FACS staining. […] Empty vector (Mock) was a control T cell without CAR molecule. A549 tumor cells were electroporated with different amounts of CD123 mRNA. The electroporation procedure was the same as described above, and only the parameters were changed, with the parameters 300 V, 0.5 ms used. CD123 expression in A549 tumor cells was detected by FACS staining of isotype or anti-CD123 antibodies and A549 cells electroporated with different amounts of CD123 mRNA. […] The cytotoxicity of CD123 CART cells against tumor cells was detected in an in vitro cytotoxicity assay. Tumor cells expressing EGFP or EGFP-A549 cells electroporated with different amounts of tumor antigen were seeded at 3000 cells/100 μL/well into a flat-bottom 96-well plate; CART cells were diluted to a proper concentration and seeded to the 100 μL/well tumor cells according to different E/T ratios (e.g., 10:1, 3:1, or 1:1), and the co-culture plate was placed into the IncuCyte S3 machine and scanning parameters were set. After scanning for 3 days, the total green object integrated intensity (GCU×μm²/well) was analyzed to calculate the killing efficiency.

Compared with B5, B6 is higher in “percent of cells in the CD123-Fc positive gate” value (from here on “percent of cells”): 47.8% for the first, 72.1% for the second.

First: B7
Second: B8
The “percent of cells” value of the first is lower: 65.4% for the first, 79.5% for the second.

Going from B9 to B10, the “percent of cells” value rises from 78.6% to 90.3%.

First: B11
Second: B12
The “percent of cells” value of the first is higher: 80.7% for the first, 21.6% for the second.

First: B13
Second: B14
The “percent of cells” value of the first is higher: 73.4% for the first, 58.5% for the second.

With B15 the “percent of cells” value was 81.8%.
